In data set [1] the target is T1, Msm encapsulin (MSMEG_5830) (M. smegmatis (endogenous in Msm groELΔC), UniProt A0R4H0 1-265).
T1 construct: encapsulin of Mycobacterium smegmatis, locus MSMEG_5830; Reconstructed with icosahedral symmetry; also called complex 001; encapsulin nanocompartment; source: endogenous, M. smegmatis groELΔC late stationary phase lysate, partially fractionated (anion exchange, >100 kDa cut-off; gel filtration); also solubilised membrane fraction
T1 sequence (looked up): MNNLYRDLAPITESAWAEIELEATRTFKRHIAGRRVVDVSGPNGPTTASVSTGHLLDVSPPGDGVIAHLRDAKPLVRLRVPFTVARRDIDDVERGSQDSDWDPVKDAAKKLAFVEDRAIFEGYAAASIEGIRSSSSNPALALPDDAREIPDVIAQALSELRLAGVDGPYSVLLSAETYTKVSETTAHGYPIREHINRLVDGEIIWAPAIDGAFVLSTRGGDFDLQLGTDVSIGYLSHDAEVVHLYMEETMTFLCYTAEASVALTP
Description: negative stain EM single-particle reconstruction; partially fractionated late stationary phase Msm lysate (anion exchange or sucrose cushion, >100 kDa cut-off), 2% uranyl acetate, Relion 3.1; symmetry imposed from 2D classes; C3 symmetry for encapsulin with cargo. Conditions: partners not purified.

Data set [2] concerns the molecule itself. The description is as above.

B1: Msm dye-decolourising type peroxidase (MSMEG_5829) (enzyme, M. smegmatis (endogenous in Msm groELΔC), UniProt A0R4G9 1-343, looked up)
chain: MPAPQPQPVLAPLTPAAVFLVATIDEGQEATVYDALPDISGLVRAIGFRDPAKRLSAITSIGSDAWDRLFSGPRPAELHPFREIDGGRHHAPATPGDLLFHLRAESMDVCFELATKLVEAMSGAITIVDETHGFRFFDNRDLMGFVDGTENPDGNLAVVATQIGDEDPDFAGGCYVHVQKYLHDMASWNSLSVEEQERVIGRTKLDDIELDDDVKPANSHVALNVIEDEDGNELKIIRHNMPFGEIGKGEFGTYYIGYSRTPSVTERMLDNMFIGDPPGNTDRILDFSTAITGGLFFTPTVDFLDDPPPLPSEDDRAEPASAPSADPVHTDGSLGIGSLKGTR
notes: dye-decolourising type peroxidase of Mycobacterium smegmatis, locus MSMEG_5829; Interpreted as a D3 hexamer from the cargo density in the C3 map; also called DyP; DyP type peroxidase; source: endogenous, M. smegmatis groELΔC late stationary phase lysate, partially fractionated, enclosed in encapsulin; also solubilised membrane fraction
On to B1, for which the “stoichiometry N” value was 10 encapsulin subunits per DyP subunit in data set [1] and 6 subunits in data set [2].

The stoichiometry N is a count of units in the complex or per binding partner.

(Values after PMC8244302, “Shotgun EM of mycobacterial protein complexes during stationary phase stress” (Current Research in Structural Biology, 2020).)
